Reference: US20050124678 (Paratek Pharmaceuticals, Inc., published 2005)

Tests used:
Rob = Rob (Escherichia coli, UniProt P0ACI0 SEQ:1-289)
SoxS = SoxS (Escherichia coli, UniProt P0A9E2 P0A9E2:1-107)
MarA = biological target: T1, MarA (Escherichia coli, UniProt P0ACH5 P0ACH5:1-127)
T1 sequence: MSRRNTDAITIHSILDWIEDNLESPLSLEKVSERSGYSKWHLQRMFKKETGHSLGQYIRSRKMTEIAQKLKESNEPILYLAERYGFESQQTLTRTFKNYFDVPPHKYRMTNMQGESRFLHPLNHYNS

Measured: binding result

Sequence of Rob (P0ACI0 whole entry): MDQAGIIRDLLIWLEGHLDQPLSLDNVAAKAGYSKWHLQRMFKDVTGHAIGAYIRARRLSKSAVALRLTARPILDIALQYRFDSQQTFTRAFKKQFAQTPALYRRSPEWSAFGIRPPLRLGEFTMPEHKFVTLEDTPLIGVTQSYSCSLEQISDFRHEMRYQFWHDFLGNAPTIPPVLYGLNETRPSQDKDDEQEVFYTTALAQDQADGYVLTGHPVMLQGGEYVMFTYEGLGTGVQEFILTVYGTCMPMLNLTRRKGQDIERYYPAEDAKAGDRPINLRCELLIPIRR
Sequence of SoxS (P0A9E2 whole entry, one chain of several): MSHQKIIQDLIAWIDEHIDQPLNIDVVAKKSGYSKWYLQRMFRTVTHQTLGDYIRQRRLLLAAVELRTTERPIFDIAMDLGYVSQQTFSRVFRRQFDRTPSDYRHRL

B1: biotinylated target DNA (SEQ ID NO. 5) (dsDNA)
DNA 1: CCGATTTAGCAAAACGTGGCATCGGTC
DNA 2: GACCGATGCCACGTTTTGCTAAATCGG
binds: all assays above
